Results on 3 molecules are retold here after WO2008118324A2 (dated 2008).

In test [1] the target is T1, human UPK-Ib expressed on the surface of cells (human, UniProt O75841 1-260).
T1 construct: whole, on cells; also called uroplakin Ib; UPK-1
T1 sequence (looked up): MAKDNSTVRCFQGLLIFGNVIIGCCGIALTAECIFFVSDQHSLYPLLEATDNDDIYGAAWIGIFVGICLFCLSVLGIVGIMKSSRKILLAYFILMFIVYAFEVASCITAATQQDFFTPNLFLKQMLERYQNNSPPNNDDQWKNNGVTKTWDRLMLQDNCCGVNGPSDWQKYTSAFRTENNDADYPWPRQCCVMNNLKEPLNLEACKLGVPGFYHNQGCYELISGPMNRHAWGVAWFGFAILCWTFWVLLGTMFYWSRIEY
Briefly: flow cytometry, antibody at 2 ug/mL on A549 and EKVX cells.

Test [2] deals with T1, human UPK-Ib expressed on the surface …. Briefly: flow cytometry on a transitional cell carcinoma line.

B1: chimeric 1G9 containing the enhancing Fc mutant (antibody, V domains shown)
VH: QVQLQQPGAELVRPGSSVKVSCKASGYTFSSYWMHWVKQRPIQGLEWIGNIDPSDSETHYNQKFKDKATLTVDKSSSTAYMQLSSLTSEDSAVYYCARSGAGTGPWLAYWGQGTLVTVSA
VL: DIVMTQSPSSLTVTAGEKVTMTCKSSQSLLNSGNQKNYLTWYQQKPGQPPNPLIYWASTRESGVPDRFTGSGSGTDFTLTISSVQAEDLAVYYCQNDYSYPFTFGSGTKLEIKR
notes: domain: C-kappa segment; They are not tied to this construct; also called chlG9-mut; chlG9 Fc mut; not shown: human IgG1 constant region carrying the 'enhancing Fc mutant'
As to B1, the binding result in test [1] was “binds”.

B2: 1G9 monoclonal antibody (murine) (antibody, V domains shown)
VH: B1 VH
VL: DIVMTQSPSSLTVTAGEKVTMTCKSSQSLLNSGNQKNYLTWYQQKPGQPPNPLIYWASTRESGVPDRFTGSGSGTDFTLTISSVQAEDLAVYYCQNDYSYPFTFGSGTKLEIK
notes: Mouse (BALB/c) hybridoma antibody, tested as culture supernatant and detected with anti-mouse IgG; also called 1G9 MAb
As for B2, the binding result in test [2] is “binds”.

B3: 5H9 monoclonal antibody (murine) (antibody, V domains shown)
VH: EVQLVESGGGLVQPKGSLKLSCAASGFSFNTYAMNWVRQAPGKGLEWVARIRSKSNNYATYYADSVKDRFTISRDDSESMLYLQMNNLKTEDTAMYYCVRQGDGYYVGWFAYWGQGTLVTVSA
VL: DIQMTQTTSSLSASLGDRVTISCRASQDISNYLNWYQQKPDGTVKLLIYYTSRLHSGVPSRFSGSGSGTDYSLTISNLEQEDIATYFCQQGNTLPFTFGSGTKLEIK
notes: Mouse (BALB/c) hybridoma antibody, tested as culture supernatant and detected with anti-mouse IgG; also called 5H9 MAb; murine 5H9
Turning to B3, in test [2], the binding result is given as “binds”.
